Measured values from the supplement of paper PMC7877785.
± gives the uncertainty stated by the source.

Assay: self-splicing fitness, log relative to wild type (ln ratio); higher = more splicing; Tetrahymena group I intron in knt gene, E. coli kanamycin selection, DiMSum; sequences stand for … in CUCUCU…GGAGGGAAAAGUUAUCAGGCAUGCACCUGGUAGCUAGUCUUUAAACCAAUAGAUUGCAUCGGUUUAAAAGGCAAGACCGUCAAAUUGCGGGAAAGGGGUCAACAGCCGUUCAGUACCAAGUCUCAGGGGAAACUUUGAGAUGGCCUUGCAAAGGGUAUGGUAAUAAGCUGACGGACAUGGUCCUAACCACGCAGCCAAGUCCUAAGUCAACAGAUCUUCUGUUGAUAUGGAUGCAGUUCACAGACUAAAUGUCGGUCGGGGAAGAUGUAUUCUUCUCAUAAGAUAUAGUCGGACCUCUCCUUAAUGGGAGCUAGCGGAUGAAGUGAUGCAACACUGGAGCCGCUGGGAACUAAUUUGUAUGCGAAAGUAUAUUGAUUAGUUUUGGAGUACUCGUGGUCG
How it was run: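 Pooled colonies went to amplicon sequencing on an Illumina HiSeq 2500 after six replicate transformations. The plates were LB agar with 100 μg/mL carbenicillin, 50 μM IPTG and 0.2% rhamnose, with or without 25 μg/mL kanamycin, incubated overnight at 37°C or 30°C. The E. coli BL21(DE3) library had all eight P1ex-region intron nucleotides randomised, the intron placed in the knt kanamycin-resistance gene on pET-22b(+). DiMSum fitness is the error-weighted combination of replicate fold changes, kanamycin against none, normalised to wild type.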

| Sequence | self-splicing fitness (ln) (30 °C) | self-splicing fitness (ln) (37 °C) |
| --- | --- | --- |
| CCGAAGCAAUAUUACGGACU | -2.33 ± 0.32 | -2.2 ± 0.34 |
| CCGAAGCAAUAUUACGGGGC | -3.54 ± 0.24 | -1.64 ± 0.24 |
| CCGAAGCAAUAUUACGUAAA | -3.14 ± 0.22 | -2.12 ± 0.33 |
| CCGAAGCAAUAUUACGUCAG | -1.47 ± 0.071 | -0.198 ± 0.11 |
| CCGAAGCAAUAUUACGUCUU | -3.58 ± 0.15 | -2.98 ± 0.21 |
| CCGAAGCAAUAUUACGUGGA | -3.71 ± 0.29 | -2.47 ± 0.17 |
| CCGAAGCAAUAUUACGUGGU | -4.68 ± 0.29 | -2.24 ± 0.2 |
| CCGAAGCAAUAUUACGUGUG | -2.19 ± 0.059 | -0.959 ± 0.062 |
| CCGAAGCAAUAUUACGUUCG | -3.33 ± 0.13 | -1.26 ± 0.11 |
| CCGCAGCAAUAUUACGAAGG | -3.52 ± 0.18 | -2.98 ± 0.29 |
| CCGCAGCAAUAUUACGACAA | -3.68 ± 0.23 | -2.21 ± 0.24 |
| CCGCAGCAAUAUUACGACAC | -2.84 ± 0.28 | -2.71 ± 0.38 |
| CCGCAGCAAUAUUACGACAU | -3.899 ± 0.024 | -2.94 ± 0.039 |
| CCGCAGCAAUAUUACGAGAU | -4.09 ± 0.42 | -2.2 ± 0.19 |
| CCGCAGCAAUAUUACGAUAU | -4.2 ± 0.23 | -2.76 ± 0.17 |
| CCGCAGCAAUAUUACGCAUU | -3.28 ± 0.2 | -3.44 ± 0.19 |
| CCGCAGCAAUAUUACGCCAC | -3.33 ± 0.29 | -1.81 ± 0.28 |
| CCGCAGCAAUAUUACGCCAG | -0.493 ± 0.091 | -0.22 ± 0.14 |
| CCGCAGCAAUAUUACGCCGC | -4.21 ± 0.29 | -2.93 ± 0.48 |
| CCGCAGCAAUAUUACGCCUA | -3.92 ± 0.31 | -3.58 ± 0.3 |
| CCGCAGCAAUAUUACGGAAG | -3.05 ± 0.12 | -1.33 ± 0.11 |
| CCGCAGCAAUAUUACGGGUG | -1.22 ± 0.055 | -0.741 ± 0.069 |
| CCGCAGCAAUAUUACGGUGA | -2.46 ± 0.084 | -0.784 ± 0.075 |
| CCGCAGCAAUAUUACGGUUA | -3.25 ± 0.2 | -2.26 ± 0.2 |
| CCGCAGCAAUAUUACGUAGC | – | -0.697 ± 0.22 |
| CCGCAGCAAUAUUACGUAGU | -3.89 ± 0.14 | -2.88 ± 0.18 |
| CCGCAGCAAUAUUACGUAUG | -1.31 ± 0.055 | -0.172 ± 0.068 |

| Sequence | self-splicing fitness (ln) (30 °C) | self-splicing fitness (ln) (37 °C) |
| --- | --- | --- |
| CCGCAGCAAUAUUACGUAUU | -3.84 ± 0.17 | -2.66 ± 0.15 |
| CCGCAGCAAUAUUACGUCAA | -4.05 ± 0.33 | -3.04 ± 0.27 |
| CCGCAGCAAUAUUACGUGAA | -4.45 ± 0.21 | -1.88 ± 0.16 |
| CCGCAGCAAUAUUACGUGAC | -4.7 ± 0.39 | -1.96 ± 0.26 |
| CCGGAGCAAUAUUACGAAUG | -1.1 ± 0.074 | 0.21 ± 0.097 |
| CCGGAGCAAUAUUACGACGU | -0.341 ± 0.08 | -0.163 ± 0.096 |
| CCGGAGCAAUAUUACGAGUU | -3.65 ± 0.2 | -2.76 ± 0.29 |
| CCGGAGCAAUAUUACGAUAG | -0.959 ± 0.07 | -0.152 ± 0.081 |
| CCGGAGCAAUAUUACGAUGC | -2.69 ± 0.41 | – |
| CCGGAGCAAUAUUACGCACC | -1.27 ± 0.38 | – |
| CCGGAGCAAUAUUACGCACU | – | -2.69 ± 0.48 |
| CCGGAGCAAUAUUACGCCAA | – | -2.53 ± 0.26 |
| CCGGAGCAAUAUUACGCCAU | – | -2.18 ± 0.35 |
| CCGGAGCAAUAUUACGCGAG | -2.87 ± 0.3 | -1.79 ± 0.27 |
| CCGGAGCAAUAUUACGCGUG | -1.09 ± 0.14 | -0.996 ± 0.16 |
| CCGGAGCAAUAUUACGCUGU | -4.31 ± 0.34 | -2.4 ± 0.4 |
| CCGGAGCAAUAUUACGGCGG | -1.49 ± 0.15 | -2.15 ± 0.34 |
| CCGGAGCAAUAUUACGGGAC | -3.11 ± 0.31 | -2.5 ± 0.3 |
| CCGGAGCAAUAUUACGGGCG | -1.36 ± 0.11 | -1 ± 0.15 |
| CCGGAGCAAUAUUACGGUCC | -1.43 ± 0.23 | – |
| CCGGAGCAAUAUUACGGUGC | – | -1.63 ± 0.45 |
| CCGGAGCAAUAUUACGUCAA | -4.11 ± 0.32 | -3.39 ± 0.26 |
| CCGGAGCAAUAUUACGUCCA | -1.39 ± 0.21 | -1.66 ± 0.32 |
| CCGGAGCAAUAUUACGUGCA | -3.1 ± 0.35 | -2.06 ± 0.29 |
| CCGGAGCAAUAUUACGUUCG | -4.36 ± 0.46 | -1.92 ± 0.46 |
| CCGGAGCAAUAUUACGUUGU | -2.59 ± 0.21 | -2.56 ± 0.26 |
| CCGUAGCAAUAUUACGAAAC | -2.61 ± 0.41 | -0.972 ± 0.29 |

| Sequence | self-splicing fitness (ln) (30 °C) | self-splicing fitness (ln) (37 °C) |
| --- | --- | --- |
| CCGUAGCAAUAUUACGAAAU | -3.61 ± 0.32 | -2.7 ± 0.34 |
| CCGUAGCAAUAUUACGAACA | -2.12 ± 0.2 | -2.26 ± 0.19 |
| CCGUAGCAAUAUUACGAACC | – | -2.06 ± 0.45 |
| CCGUAGCAAUAUUACGACUA | – | -1.08 ± 0.25 |
| CCGUAGCAAUAUUACGCAAG | -2.09 ± 0.18 | -1.46 ± 0.18 |
| CCGUAGCAAUAUUACGCAGC | -3.54 ± 0.35 | -3.36 ± 0.25 |
| CCGUAGCAAUAUUACGCAGG | – | -2.75 ± 0.48 |
| CCGUAGCAAUAUUACGCCCA | – | -2.54 ± 0.48 |
| CCGUAGCAAUAUUACGCUAC | -4.65 ± 0.38 | -1.76 ± 0.21 |
| CCGUAGCAAUAUUACGCUCA | – | -2.36 ± 0.26 |
| CCGUAGCAAUAUUACGGAAC | -3.54 ± 0.41 | -2.13 ± 0.43 |
| CCGUAGCAAUAUUACGGAUA | – | -2.16 ± 0.28 |
| CCGUAGCAAUAUUACGGAUU | – | -3.01 ± 0.29 |
| CCGUAGCAAUAUUACGGCAG | -3.35 ± 0.26 | -2.28 ± 0.26 |
| CCGUAGCAAUAUUACGGGCA | -3.76 ± 0.42 | -2.14 ± 0.23 |
| CCGUAGCAAUAUUACGGGCU | -2.94 ± 0.16 | -2.27 ± 0.21 |
| CCGUAGCAAUAUUACGGUAA | -3.17 ± 0.24 | -3.3 ± 0.26 |
| CCGUAGCAAUAUUACGGUCA | -1.64 ± 0.12 | -2.27 ± 0.19 |
| CCGUAGCAAUAUUACGGUUA | -3.29 ± 0.16 | -1.57 ± 0.12 |
| CCGUAGCAAUAUUACGGUUU | -2.85 ± 0.16 | -3.05 ± 0.27 |
| CCGUAGCAAUAUUACGUACC | -4.4 ± 0.29 | -1.72 ± 0.34 |
| CCGUAGCAAUAUUACGUUAC | -4.02 ± 0.32 | -2.27 ± 0.42 |
| CCGUAGCAAUAUUACGUUAG | -2.22 ± 0.14 | -0.971 ± 0.14 |
| CCGUAGCAAUAUUACGUUCA | -1.34 ± 0.2 | -1.91 ± 0.25 |
| CCUAAGCAAUAUUACGAAUG | -1.63 ± 0.14 | -2.23 ± 0.16 |
| CCUAAGCAAUAUUACGACUC | -3.42 ± 0.38 | -2.04 ± 0.3 |
